Numbering of substitutions follows the chain as printed. Names may count otherwise.
B1: humVHH_S56A (VHH)
VHH: EVQLVESGGGLVQPGGSLRLSCAASGRTFSEYAMGWFRQAPGKEREFVATISWSGGATYYTDSVKGRFTISRDNAKNTVYLQMNSLRPEDTAVYYCAAAGLGTVVSEWDYDYDYWGQGTLVTVSS
notes: also called humVHH72_S56A; VHH72_h1_S56A
B2: humVHH (VHH)
VHH: B1 VHH with A57S
notes: also called humanized VHH72; VHH72_h1
B3: humVHH_S56A (VHH)
VHH: B1 VHH
notes: also called monomeric humanized VHH72 with the S56A substitution

What was measured:
[1] = target: mouse IgG1 Fc-fused SARS-CoV-2 RBD (SARS-CoV-2, UniProt P0DTC2); assay: BLI; conditions: both partners purified
[2] = target: monomeric human Fc-fused SARS-CoV-2_RBD-SD1 (SARS-CoV-2, Wuhan-Hu-1, UniProt P0DTC2); assay: BLI; conditions: both partners purified
SARS-CoV-1 spike = SARS-CoV-1 spike (SARS-CoV-1, reference entry; strain not …, UniProt P59594); assay: cell-based or functional assay

Row | Binder | koff [1] | fold increase in affinity over humVHH [2] | neutralization of VSV SARS-CoV-1 spike pseudotype virus, potency against humVHH (SARS-CoV-1 spike)
1 | B1 | 0.019 s⁻¹ |  | 
2 | B2 | 0.075 s⁻¹ |  | 
3 | B3 |  | ~7 fold | 10 fold

— article PMC9924070 (Science Translational Medicine, 2021)
